Measured values from paper PMC4825646, “MEC-10 and MEC-19 Reduce the Neurotoxicity of the MEC-4(d) DEG/ENaC Channel in Caenorhabditis elegans” (G3: Genes|Genomes|Genetics, 2016).

Target: the molecule itself
Assay: single-molecule photobleaching step counting (TIRF microscopy); MEC-4::EGFP on the Xenopus oocyte surface in the presence of MEC-19, 1-2 d after cRNA injection; observed bleaching steps compared with the binomial distribution predicted for trimers

B1: C-terminally EGFP-tagged MEC-4 (natural protein, C. elegans, UniProt P24612 1-768, looked up)
chain: MSWMQNLKNYQHLRDPSEYMSQVYGDPLAYLQETTKFVTEREYYEDFGYGECFNSTESEVQCELITGEFDPKLLPYDKRLAWHFKEFCYKTSAHGIPMIGEAPNVYYRAVWVVLFLGCMIMLYLNAQSVLDKYNRNEKIVDIQLKFDTAPFPAITLCNLNPYKASLATSVDLVKRTLSAFDGAMGKAGGNKDHEEEREVVTEPPTTPAPTTKPARRRGKRDLSGAFFEPGFARCLCGSQGSSEQEDKDEEKEEELLETTTKKVFNINDADEEWDGMEEYDNEHYENYDVEATTGMNMMEECQSERTKFDEPTGFDDRCICAFDRSTHDAWPCFLNGTWETTECDTCNEHAFCTKDNKTAKGHRSPCICAPSRFCVAYNGKTPPIEIWTYLQGGTPTEDPNFLEAMGFQGMTDEVAIVTKAKENIMFAMATLSMQDRERLSTTKRELVHKCSFNGKACDIEADFLTHIDPAFGSCFTFNHNRTVNLTSIRAGPMYGLRMLVYVNASDYMPTTEATGVRLTIHDKEDFPFPDTFGYSAPTGYVSSFGLRLRKMSRLPAPYGDCVPDGKTSDYIYSNYEYSVEGCYRSCFQQLVLKECRCGDPRFPVPENARHCDAADPIARKCLDARMNDLGGLHGSFRCRCQQPCRQSIYSVTYSPAKWPSLSLQIQLGSCNGTAVECNKHYKENGAMVEVFYEQLNFEMLTESEAYGFVNLLADFGGQLGLWCGISFLTCCEFVFLFLETAYMSAEHNYSLYKKKKAEKAKKIASGSF
notes: MEC-4, C. elegans DEG/ENaC protein, wild type; construct described in Chen et al. (2015); also called MEC-4::EGFP; source: Xenopus laevis oocytes, cRNA injected, on the oocyte surface; not shown: EGFP, C-terminal, kept
stoichiometry N: 3
